The values below are quoted from earlier work in doi:10.1101/2022.08.17.503475.

For this series, the target named is Glu14 (UniProt position 14, GAILAEVIGTT). The series is described as follows: NMR. Conditions: TPP+-bound; alternating access in slow exchange throughout the tested pH range.

As for “EmrE (multidrug transporter EmrE, small multidrug resistance family) (Escherichia coli)”, the pKa – broadly, the negative logarithm of the acid dissociation constant – is listed as 6.8 ± 0.1.
